Source: publication PMC2602806
Read-outs that look alike come from different tables or passages of the source.

How the values were obtained:
Assay in all cases: X-ray crystallography
[1] = molecular target: T1, VP1 RNA-dependent RNA polymerase (cVP1) (Simian rotavirus A SA11 (group A; …, UniProt O37061 1-1088)
T1 sequence: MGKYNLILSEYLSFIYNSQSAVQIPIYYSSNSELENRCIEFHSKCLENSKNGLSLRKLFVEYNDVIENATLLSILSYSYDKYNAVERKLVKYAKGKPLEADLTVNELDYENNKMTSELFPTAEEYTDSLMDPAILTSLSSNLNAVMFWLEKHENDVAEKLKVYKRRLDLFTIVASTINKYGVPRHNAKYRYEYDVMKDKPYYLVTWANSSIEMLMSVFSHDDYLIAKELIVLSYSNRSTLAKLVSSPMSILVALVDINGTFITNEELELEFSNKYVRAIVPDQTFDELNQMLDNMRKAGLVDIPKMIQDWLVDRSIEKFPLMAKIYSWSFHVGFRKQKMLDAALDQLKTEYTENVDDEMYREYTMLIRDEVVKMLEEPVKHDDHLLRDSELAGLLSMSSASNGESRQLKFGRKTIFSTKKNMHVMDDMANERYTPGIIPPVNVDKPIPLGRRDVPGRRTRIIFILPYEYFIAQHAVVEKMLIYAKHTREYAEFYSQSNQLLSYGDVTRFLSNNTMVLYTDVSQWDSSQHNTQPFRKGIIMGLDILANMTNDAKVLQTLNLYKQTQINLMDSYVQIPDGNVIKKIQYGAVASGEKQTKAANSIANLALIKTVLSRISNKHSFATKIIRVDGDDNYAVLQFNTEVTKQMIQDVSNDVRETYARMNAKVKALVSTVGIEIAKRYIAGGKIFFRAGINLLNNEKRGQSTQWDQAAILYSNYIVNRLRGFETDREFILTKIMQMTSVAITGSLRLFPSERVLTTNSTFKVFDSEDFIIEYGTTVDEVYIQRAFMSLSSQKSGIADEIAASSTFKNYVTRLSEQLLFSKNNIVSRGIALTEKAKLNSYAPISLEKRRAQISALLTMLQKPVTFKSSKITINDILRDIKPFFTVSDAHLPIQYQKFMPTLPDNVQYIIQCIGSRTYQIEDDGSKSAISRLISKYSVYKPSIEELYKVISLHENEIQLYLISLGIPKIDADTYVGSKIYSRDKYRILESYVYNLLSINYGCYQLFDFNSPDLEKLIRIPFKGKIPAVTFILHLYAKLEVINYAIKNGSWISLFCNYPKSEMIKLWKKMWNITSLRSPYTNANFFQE

[2] = molecular target: T1, VP1 RNA-dependent RNA polymerase (cVP1); remark: listed apart in the source
[3] = molecular target: T1, VP1 RNA-dependent RNA polymerase (cVP1); remark: listed apart in the source
[4] = molecular target: T1, VP1 RNA-dependent RNA polymerase (cVP1); remark: listed apart in the source
[5] = molecular target: T1, VP1 RNA-dependent RNA polymerase (cVP1); remark: listed apart in the source

## AAAAGCC (ssRNA) [3'CS-]
[1]
  binding result: binds

## UGUGCC (ssRNA) [3'CS+ A3-deletion]
[2]
  binding result: binds

## GGCUUU (ssRNA) [5'CS+]
[3]
  binding result: binds

## UGUGACC (ssRNA) [3'CS+ wild type]
[4]
  binding result: binds

## UGUGAACC (ssRNA) [3'CS+ A-insertion]
[5]
  binding result: binds
